Laboratory results from patent US20160340442A1.

Tests used:
MUC1 (human) [1] = target: MUC1 (human) (UniProt P15941); assay: flow cytometry, K562/Con siRNA cells (MUC1-positive)
MUC1 (human) [2] = target: MUC1 (human) (UniProt P15941); assay: surface staining, flow cytometry, primary breast cancer patient cells RG563999; 2 µg antibody/sample
MUC1 (human) [3] = target: MUC1 (human) (UniProt P15941); assay: surface staining, flow cytometry, KMS28PE cells; 2 µg antibody/sample
MUC1 (human) [4] = target: MUC1 (human) (UniProt P15941); assay: surface staining, flow cytometry, KU812 CTL-siRNA cells; 2 µg antibody/sample
MUC1 (human) [5] = target: MUC1 (human) (UniProt P15941); assay: surface staining, flow cytometry, U266 cells; 2 µg antibody/sample
MUC1 (human) [6] = target: MUC1 (human) (UniProt P15941); assay: surface staining, flow cytometry, K562 CTL-siRNA cells; 2 µg antibody/sample; fixed samples kept at 4° C. for 4 days
MUC1 (human) [7] = target: MUC1 (human) (UniProt P15941); assay: surface staining, flow cytometry, K562 MUC1-siRNA cells (MUC1 silenced); 2 µg antibody/sample
MUC1 (human) [8] = target: MUC1 (human) (UniProt P15941); assay: surface staining, flow cytometry, KU812 cells; 2 µg antibody/sample
MUC1 (human) [9] = target: MUC1 (human) (UniProt P15941); assay: surface staining, flow cytometry, ZR-75-1 cells (second row); 2 µg antibody/sample
MUC1 (human) [10] = target: MUC1 (human) (UniProt P15941); assay: surface staining, flow cytometry, U266 MUC1-siRNA cells (MUC1 silenced); 2 µg antibody/sample
MUC1 (human) [11] = target: MUC1 (human) (UniProt P15941); assay: surface staining, flow cytometry, U266 CTL-siRNA cells (second block); 2 µg antibody/sample
MUC1 (human) [12] = target: MUC1 (human) (UniProt P15941); assay: surface staining, flow cytometry, U266 MUC1-siRNA cells (MUC1 silenced, second block); 2 µg antibody/sample
MUC1 (human) [13] = target: MUC1 (human) (UniProt P15941); assay: surface staining, flow cytometry, ZR-75-1 cells (third row); 2 µg antibody/sample
MUC1 (human) [14] = target: MUC1 (human) (UniProt P15941); assay: surface staining, flow cytometry, RPMI8266 cells; 2 µg antibody/sample
MUC1 (human) [15] = target: MUC1 (human) (UniProt P15941); assay: flow cytometry, KU812/MUC1siRNA cells (MUC1 silenced, labelled MUC1-negative)
MUC1 (human) [16] = target: MUC1 (human) (UniProt P15941); assay: surface staining, flow cytometry, K562 CML cells; 2 µg antibody/sample
MUC1 (human) [17] = target: MUC1 (human) (UniProt P15941); assay: surface staining, flow cytometry, ME559203 cells; 2 µg antibody/sample
MUC1 (human) [18] = target: MUC1 (human) (UniProt P15941); assay: flow cytometry, U266/Con siRNA cells (MUC1-positive)
MUC1 (human) [19] = target: MUC1 (human) (UniProt P15941); assay: surface staining, flow cytometry, K562 cells; 2 µg antibody/sample
MUC1 (human) [20] = target: MUC1 (human) (UniProt P15941); assay: surface staining, flow cytometry, U266 CTL-siRNA cells; 2 µg antibody/sample
MUC1 (human) [21] = target: MUC1 (human) (UniProt P15941); assay: flow cytometry, U266/MUC1siRNA cells (MUC1 silenced, labelled MUC1-negative)
MUC1 (human) [22] = target: MUC1 (human) (UniProt P15941); assay: surface staining, flow cytometry, MV4-11 cells; 2 µg antibody/sample
MUC1 (human) [23] = target: MUC1 (human) (UniProt P15941); assay: surface staining, flow cytometry, ZR-75-1 cells; 2 µg antibody/sample
MUC1 (human) [24] = target: MUC1 (human) (UniProt P15941); assay: surface staining, flow cytometry, primary breast cancer patient cells RG563999 (second row); 2 µg antibody/sample
MUC1 (human) [25] = target: MUC1 (human) (UniProt P15941); assay: surface staining, flow cytometry, MOLM-14 cells; 2 µg antibody/sample, PE-conjugated goat anti-mouse 2nd antibody
MUC1 (human) [26] = target: MUC1 (human) (UniProt P15941); assay: surface staining, flow cytometry, KU812 MUC1-siRNA cells (MUC1 silenced, second block); 2 µg antibody/sample
MUC1 (human) [27] = target: MUC1 (human) (UniProt P15941); assay: surface staining, flow cytometry, KU812 MUC1-siRNA cells (MUC1 silenced); 2 µg antibody/sample
MUC1 (human) [28] = target: MUC1 (human) (UniProt P15941); assay: flow cytometry, KU812/Con siRNA cells (MUC1-Positive)
MUC1 (human) [29] = target: MUC1 (human) (UniProt P15941); assay: surface staining, flow cytometry, KU812 CTL-siRNA cells (second block); 2 µg antibody/sample
MUC1 (human) [30] = target: MUC1 (human) (UniProt P15941); assay: surface staining, flow cytometry, primary breast cancer patient cells JB564765; 2 µg antibody/sample
MUC1 (human) [31] = target: MUC1 (human) (UniProt P15941); assay: surface staining, flow cytometry, KU812 CML cells; 2 µg antibody/sample
MUC1 (human) [32] = target: MUC1 (human) (UniProt P15941); assay: flow cytometry, K562/MUC1siRNA cells (MUC1 silenced, labelled MUC1-negative)

Sequence of MUC1 (human) (P15941 24-1255): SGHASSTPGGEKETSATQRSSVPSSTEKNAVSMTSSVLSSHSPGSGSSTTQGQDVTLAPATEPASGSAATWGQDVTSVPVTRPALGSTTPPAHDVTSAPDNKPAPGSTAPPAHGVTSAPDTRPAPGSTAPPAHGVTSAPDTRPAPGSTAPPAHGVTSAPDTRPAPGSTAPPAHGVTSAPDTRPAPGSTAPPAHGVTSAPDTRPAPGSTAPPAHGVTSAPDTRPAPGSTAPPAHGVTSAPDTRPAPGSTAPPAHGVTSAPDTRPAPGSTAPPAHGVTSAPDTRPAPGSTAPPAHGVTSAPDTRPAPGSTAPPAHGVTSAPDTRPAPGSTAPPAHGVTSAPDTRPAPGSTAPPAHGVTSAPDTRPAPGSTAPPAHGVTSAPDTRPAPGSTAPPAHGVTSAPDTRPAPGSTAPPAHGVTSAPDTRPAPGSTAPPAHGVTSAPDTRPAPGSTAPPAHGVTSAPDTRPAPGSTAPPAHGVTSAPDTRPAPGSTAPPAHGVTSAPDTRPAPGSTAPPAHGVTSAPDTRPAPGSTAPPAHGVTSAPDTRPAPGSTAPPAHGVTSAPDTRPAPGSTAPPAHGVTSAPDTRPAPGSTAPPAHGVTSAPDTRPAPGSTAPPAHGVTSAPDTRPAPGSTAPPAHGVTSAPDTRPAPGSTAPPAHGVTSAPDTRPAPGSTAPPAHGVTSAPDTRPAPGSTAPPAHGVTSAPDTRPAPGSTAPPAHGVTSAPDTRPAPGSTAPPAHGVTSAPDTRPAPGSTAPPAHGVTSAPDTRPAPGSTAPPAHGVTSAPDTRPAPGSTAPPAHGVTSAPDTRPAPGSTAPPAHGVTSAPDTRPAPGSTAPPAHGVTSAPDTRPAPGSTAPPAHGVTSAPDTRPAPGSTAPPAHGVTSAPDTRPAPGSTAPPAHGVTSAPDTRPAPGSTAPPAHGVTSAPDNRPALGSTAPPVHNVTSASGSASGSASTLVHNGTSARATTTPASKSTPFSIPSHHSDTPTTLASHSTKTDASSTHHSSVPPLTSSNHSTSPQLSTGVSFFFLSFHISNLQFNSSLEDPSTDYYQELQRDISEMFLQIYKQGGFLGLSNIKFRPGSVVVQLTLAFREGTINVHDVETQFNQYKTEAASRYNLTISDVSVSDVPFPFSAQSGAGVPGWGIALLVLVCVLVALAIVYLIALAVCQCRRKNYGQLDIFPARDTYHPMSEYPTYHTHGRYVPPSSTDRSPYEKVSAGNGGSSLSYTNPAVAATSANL

Substance: DF3 (antibody)
- flow cytometry value (unit not given) (MUC1 (human) [1]): 40.6
- flow cytometry value (unit not given) (MUC1 (human) [2]): 60.5
- flow cytometry value (unit not given) (MUC1 (human) [3]): 58.2
- flow cytometry value (unit not given) (MUC1 (human) [4]): 96.6
- flow cytometry value (unit not given) (MUC1 (human) [5]): 99.2
- flow cytometry value (unit not given) (MUC1 (human) [6]): 40.6
- flow cytometry value (unit not given) (MUC1 (human) [7]): 17.1
- flow cytometry value (unit not given) (MUC1 (human) [8]): 98.1
- flow cytometry value (unit not given) (MUC1 (human) [9]): 6.84
- flow cytometry value (unit not given) (MUC1 (human) [10]): 16.2
- flow cytometry value (unit not given) (MUC1 (human) [11]): 96.5
- flow cytometry value (unit not given) (MUC1 (human) [12]): 13.5
- flow cytometry value (unit not given) (MUC1 (human) [13]): 89.5
- flow cytometry value (unit not given) (MUC1 (human) [14]): 95
- flow cytometry value (unit not given) (MUC1 (human) [15]): 35.4
- flow cytometry value (unit not given) (MUC1 (human) [16]): 77.9
- flow cytometry value (unit not given) (MUC1 (human) [17]): 57
- flow cytometry value (unit not given) (MUC1 (human) [18]): 94.7
- flow cytometry value (unit not given) (MUC1 (human) [19]): 78.8
- flow cytometry value (unit not given) (MUC1 (human) [20]): 94.7
- flow cytometry value (unit not given) (MUC1 (human) [21]): 13.5
- flow cytometry value (unit not given) (MUC1 (human) [22]): 74.2
- flow cytometry value (unit not given) (MUC1 (human) [23]): 98.5
- flow cytometry value (unit not given) (MUC1 (human) [24]): 11.9
- flow cytometry value (unit not given) (MUC1 (human) [25]): 99.5
- flow cytometry value (unit not given) (MUC1 (human) [26]): 85.4
- flow cytometry value (unit not given) (MUC1 (human) [27]): 69.2
- flow cytometry value (unit not given) (MUC1 (human) [28]): 95.2
- flow cytometry value (unit not given) (MUC1 (human) [29]): 95.2
- flow cytometry value (unit not given) (MUC1 (human) [30]): 21.1
- flow cytometry value (unit not given) (MUC1 (human) [31]): 90.5
- flow cytometry value (unit not given) (MUC1 (human) [32]): 17.1
